One block for each binder: values may come before it.
Legend:
rat PAI-1 [1] = biological target: T1, rat PAI-1 (rat, UniProt P20961 24-402); assay: cell-based or functional assay
T1 sequence: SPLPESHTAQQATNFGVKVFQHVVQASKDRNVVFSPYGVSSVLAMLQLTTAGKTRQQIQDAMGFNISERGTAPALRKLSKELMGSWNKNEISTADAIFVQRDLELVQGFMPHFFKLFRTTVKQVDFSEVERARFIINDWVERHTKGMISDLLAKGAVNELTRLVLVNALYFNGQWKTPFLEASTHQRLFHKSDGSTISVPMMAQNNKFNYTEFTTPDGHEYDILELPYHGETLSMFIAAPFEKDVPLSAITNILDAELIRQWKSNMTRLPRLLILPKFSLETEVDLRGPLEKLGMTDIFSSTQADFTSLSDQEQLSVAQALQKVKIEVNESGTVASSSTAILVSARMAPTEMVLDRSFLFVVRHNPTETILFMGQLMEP

[2] = biological target: T2, human PAI-1, active, wild-type, non-glycosylated (E. coli-derived) (human, UniProt P05121 24-402); assay: cell-based or functional assay
mouse PAI-1 [3] = biological target: T3, mouse PAI-1 (mouse, UniProt P22777 24-401); assay: cell-based or functional assay
T3 sequence: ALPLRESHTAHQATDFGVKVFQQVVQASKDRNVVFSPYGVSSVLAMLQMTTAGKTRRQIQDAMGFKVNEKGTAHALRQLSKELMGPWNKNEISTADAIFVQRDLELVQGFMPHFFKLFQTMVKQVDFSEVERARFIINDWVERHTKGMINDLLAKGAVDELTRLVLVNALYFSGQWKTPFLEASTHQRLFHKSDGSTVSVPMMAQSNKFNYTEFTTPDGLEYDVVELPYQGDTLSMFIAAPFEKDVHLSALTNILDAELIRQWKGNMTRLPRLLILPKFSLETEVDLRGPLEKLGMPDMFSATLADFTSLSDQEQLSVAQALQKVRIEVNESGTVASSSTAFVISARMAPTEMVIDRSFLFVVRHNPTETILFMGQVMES

[4] = biological target: glycosylated active human PAI-1 produced by CHO cells (human, UniProt P05121 24-402, N-glycosylated (CHO-produced)); assay: cell-based or functional assay
rat PAI-1 [5] = biological target: T1, rat PAI-1; assay: competition ELISA (DELFIA), IgG coated, competitor titrated against biotinylated active human PAI-1
rabbit PAI-1 = biological target: T4, rabbit PAI-1 (rabbit); assay: as above
T4 chain: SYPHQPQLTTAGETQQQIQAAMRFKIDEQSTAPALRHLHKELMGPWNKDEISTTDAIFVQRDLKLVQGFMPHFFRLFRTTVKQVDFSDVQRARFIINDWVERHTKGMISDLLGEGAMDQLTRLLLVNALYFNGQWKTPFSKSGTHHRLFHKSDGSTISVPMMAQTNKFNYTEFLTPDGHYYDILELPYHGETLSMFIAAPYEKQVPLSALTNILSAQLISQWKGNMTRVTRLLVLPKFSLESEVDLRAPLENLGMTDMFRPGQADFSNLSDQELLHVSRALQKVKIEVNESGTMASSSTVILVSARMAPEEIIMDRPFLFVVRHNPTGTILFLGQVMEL

mouse PAI-1 [6] = biological target: T3, mouse PAI-1; assay: as above
latent human PAI-1 = biological target: T5, latent human PAI-1 (human, UniProt P05121 24-402); assay: as above
T5 construct: also called latent PAI-1

cynomolgus PAI-1 [7] = biological target: T6, cynomolgus PAI-1 (cynomolgus, UniProt P05121 24-402 (human entry), limits assumed); assay: cell-based or functional assay
rat PAI-1 [8] = biological target: T1, rat PAI-1; assay: cell-based or functional assay; remark: listed apart in the source
[9] = biological target: T2, human PAI-1, active, wild-type, …; assay: cell-based or functional assay; remark: listed apart in the source
mouse PAI-1 [10] = biological target: T3, mouse PAI-1; assay: cell-based or functional assay; remark: listed apart in the source
cynomolgus PAI-1 [11] = biological target: T6, cynomolgus PAI-1; assay: cell-based or functional assay; remark: listed apart in the source
[12] = biological target: T2, human PAI-1, active, wild-type, …; assay: cell-based or functional assay; remark: listed apart in the source
mouse PAI-1 [13] = biological target: T3, mouse PAI-1; assay: cell-based or functional assay; remark: listed apart in the source
rat PAI-1 [14] = biological target: T1, rat PAI-1; assay: cell-based or functional assay; remark: listed apart in the source
antithrombin III = antithrombin III (UniProt P01008 33-464); assay: competition ELISA (DELFIA): PICK167_A01-fgl IgG1 (CAT-1001) coated on the plate, biotinylated human PAI-1, titration of the unlabelled test antigen
PAI-2 = PAI-2 (UniProt P05120 1-415, limits assumed); assay: as above
α1-antitrypsin = biological target: T7, α1-antitrypsin (UniProt P01009 25-418); assay: as above
T7 construct: also called alpha-1-antitrypsin

PAI-3 = biological target: T8, PAI-3 (UniProt P05154 26-406, limits assumed); assay: as above
T8 sequence (looked up): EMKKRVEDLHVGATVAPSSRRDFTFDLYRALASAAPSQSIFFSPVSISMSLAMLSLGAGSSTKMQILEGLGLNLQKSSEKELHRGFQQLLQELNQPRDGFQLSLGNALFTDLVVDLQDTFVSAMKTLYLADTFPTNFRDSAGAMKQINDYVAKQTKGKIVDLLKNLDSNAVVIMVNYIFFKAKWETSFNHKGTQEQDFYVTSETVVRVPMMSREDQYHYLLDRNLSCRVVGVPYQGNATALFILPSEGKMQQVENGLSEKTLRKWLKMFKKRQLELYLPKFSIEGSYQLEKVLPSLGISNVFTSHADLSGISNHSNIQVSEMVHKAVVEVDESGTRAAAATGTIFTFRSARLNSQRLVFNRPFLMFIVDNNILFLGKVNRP

α2-antiplasmin = biological target: T9, α2-antiplasmin (UniProt P08697 40-491, limits assumed); assay: as above
T9 sequence (looked up): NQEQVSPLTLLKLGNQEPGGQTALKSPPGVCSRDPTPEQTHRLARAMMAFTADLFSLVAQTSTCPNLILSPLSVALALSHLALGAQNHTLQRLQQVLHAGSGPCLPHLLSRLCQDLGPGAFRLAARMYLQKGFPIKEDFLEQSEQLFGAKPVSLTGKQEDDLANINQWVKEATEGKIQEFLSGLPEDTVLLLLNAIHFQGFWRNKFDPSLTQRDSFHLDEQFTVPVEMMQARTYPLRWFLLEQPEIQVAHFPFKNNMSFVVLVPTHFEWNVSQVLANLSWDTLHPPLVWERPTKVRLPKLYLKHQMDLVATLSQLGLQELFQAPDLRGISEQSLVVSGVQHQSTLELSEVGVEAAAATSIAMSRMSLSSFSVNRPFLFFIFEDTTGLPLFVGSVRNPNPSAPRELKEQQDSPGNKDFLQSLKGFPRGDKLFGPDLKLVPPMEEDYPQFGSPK

α1-antichymotrypsin = biological target: T10, α1-antichymotrypsin (UniProt P01011 24-423); assay: as above
T10 sequence (looked up): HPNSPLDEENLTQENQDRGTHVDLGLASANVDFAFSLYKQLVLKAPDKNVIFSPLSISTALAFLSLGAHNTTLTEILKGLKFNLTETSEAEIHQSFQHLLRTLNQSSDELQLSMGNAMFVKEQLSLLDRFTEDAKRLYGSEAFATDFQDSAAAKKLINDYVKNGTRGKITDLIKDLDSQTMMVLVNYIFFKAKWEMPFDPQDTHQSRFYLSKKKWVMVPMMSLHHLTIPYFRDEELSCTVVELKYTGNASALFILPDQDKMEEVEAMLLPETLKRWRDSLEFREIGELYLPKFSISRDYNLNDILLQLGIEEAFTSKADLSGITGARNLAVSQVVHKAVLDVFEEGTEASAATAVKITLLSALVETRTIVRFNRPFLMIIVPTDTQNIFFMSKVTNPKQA

[15] = biological target: T2, human PAI-1, active, wild-type, …; assay: SPR BIAcore, CAT-1001 amino-linked to CM3 chip, human wild-type PAI-1 as analyte, 1:1 Langmuir

IC50 HT-1080 Exo PAI-1 (rat PAI-1 [1]): 16.2 nM
IC50 HT-1080 Exo PAI-1 [2]: 7.3 nM
IC50 HT-1080 Exo PAI-1 (mouse PAI-1 [3]): 5.9 nM
IC50 chromogenic, hu glyco [4]: 1.3 nM
IC50 ratio rat/wt (rat PAI-1 [5]): 2.3
IC50 ratio rabbit/wt (rabbit PAI-1): 9.1
IC50 ratio mouse/wt (mouse PAI-1 [6]): 7.6
IC50 ratio latent/wt (latent human PAI-1): 7.5
IC50 chromogenic (cynomolgus PAI-1 [7]): 0.8 nM
IC50 ratio cyno/human (cynomolgus PAI-1 [7]): 0.5
IC50 chromogenic (rat PAI-1 [8]): 2.9 nM
IC50 ratio rat/human (rat PAI-1 [8]): 1.8
IC50 chromogenic [9]: 1.6 nM
IC50 chromogenic (mouse PAI-1 [10]): 1.4 nM
IC50 ratio mouse/human (mouse PAI-1 [10]): 0.9
B1: Antibody 20, IgG1, not germlined (antibody, V domains shown)
VH: QVQLQQSGAEVKKPGSSVKVSCKASGGTFSSYAISWVRQAPGQGLEWMGGIIPTFGTANYAQKFQGRVTITADESTSTAYMELSSLRSEDTAVYYCAREKRQWLEGHFDYWGRGTLVTVSS
VL: DIQMTQSPSTLSASVGDRVTITCRASEGIYHELAWYQQKPGKAPKLLIYRASSLASGVPSRFSGSRSGTEFTLTISSLQPDDFATYYCQQYSDYPLTFGGGTKVEIK
notes: whole IgG1; also called Ab 20

IC50 chromogenic (FIG. 2b) (cynomolgus PAI-1 [11]): 0.8 nM
IC50 chromogenic (FIG. 2a) [12]: 3.6 nM
IC50 chromogenic (FIG. 2d) (mouse PAI-1 [13]): 2.6 nM
IC50 HT-1080 Exo PAI-1 (rat PAI-1 [1]): 50.1 nM
IC50 HT-1080 Exo PAI-1 [2]: 23.7 nM
IC50 HT-1080 Exo PAI-1 (mouse PAI-1 [3]): 26.2 nM
IC50 chromogenic (cynomolgus PAI-1 [7]): 1 nM
IC50 chromogenic (rat PAI-1 [8]): 3 nM
IC50 chromogenic [9]: 3.2 nM
B2: Antibody 08, scFv (scFv, V domains shown)
VH: QVQLVQSGAEVKKPGSSVKVSCKASGGTFSSYAISWVRQAPGQGLEWMGGIIPTFGTANYAQKFQGRVTITADESTSTAYMELSSLRSEDTAVYYCARERRQWLEGHFDYWGRGTLVTVSS
VL: DIQMTQSPSTLSASVGDRVTITCRASEGIYHNLAWYQQKPGKAPKLLIYKASSLASGVPSRFSGSRSGTEFTLTISSLQPDDFATYYCQQYSNYPLTFGGGTKVEIK

IC50, PAI-1:tPA functional assay (cynomolgus PAI-1 [11]): 0.77 nM
IC50, HT1080 plasminogen activation assay (rat PAI-1 [14]): 22.8 nM
IC50, PAI-1:tPA functional assay (rat PAI-1 [14]): 3.07 nM
pIC50, HT1080 plasminogen activation assay (rat PAI-1 [14]): 7.64
IC50, HT1080 plasminogen activation assay [12]: 13.2 nM
IC50, PAI-1:tPA functional assay [12]: 1.65 nM
pIC50, HT1080 plasminogen activation assay [12]: 7.87
Kd [15]: 0.016 nM
B3: PICK167_A01-fgl IgG1 (CAT-1001) (antibody, V domains shown)
VH: QVQLVQSGAEVKKPGSSVKVSCKASGGTFSSYAISWVRQAPGQGLEWMGGIIPTFGTANYAQKFQGRVTITADESTSTAYMELSSLRSEDTAVYYCARERRQWLEGHFDYWGRGTLVTVSS
VL: DIQMTQSPSTLSASVGDRVTITCRASEGIYHNLAWYQQKPGKAPKLLIYKASSLASGVPSRFSGSRSGTEFTLTISSLQPDDFATYYCQQYSNYPLTFGGGTKVEIKR
notes: fully germlined variant, made as an IgG1 only; also called PICK67A01-fgl
binding result (antithrombin III): no binding (tested: log M about -6.3 (about 5e-7 M))
binding result (PAI-2): no binding (tested: log M about -6.3 (about 5e-7 M))
binding result (α1-antitrypsin): no binding (tested: log M about -6.3 (about 5e-7 M))
binding result (PAI-3): no binding (tested: log M about -6.3 (about 5e-7 M))
binding result (α2-antiplasmin): no binding (tested: log M about -6.3 (about 5e-7 M))
binding result (α1-antichymotrypsin): no binding (tested: log M about -6.3 (about 5e-7 M))

From patent US20120114652A1 (AbbVie / Abbott, published 2012)
